“And” between values parts separate entries of the source, which are not always exact repeats. Equal entries are not always repeated. Each block holds one binder with its values, some of them ahead of it.
Experiments:
[1] = target: Cynomolgus TTR denatured in 6 M Guanidine Hydrochloride (Cynomolgus, UniProt Q8HXW1 21-147); experiment: SPR Biacore T200, antibody captured by anti-mouse antibody, Gu-cTTR 1-1000 nM as analyte, 1:1 fit
Description: (§1) Anti-Mouse antibody was immobilized on sensor chip CM3 (GE Healthcare Life Sciences) via amine coupling, and murine antibodies (ligand) were captured to a level to ensure a maximum binding of analyte of 50 RU (approximately 250RU of ligand binding). Various concentrations of Gu-TTR (ranging from 0.4 nM to 100 nM) were passed over the captured ligand at 50 μL/min in running buffer (HBS+0.05% P-20, 1 mg/mL BSA, 50 mM Gu-HCl) for 300 s association time and 900 s dissociation time. Regeneration of the chip surface was accomplished by 2 short injections of 10 mM Glycine-HCl at pH 1.7. Concentrations of Gu-cTTR used ranged from 1-1000 nM, while concentrations of Human TTR tetramer ranged from 10 nM to 10,000 nM. Data was blank subtracted to both a sensor not containing ligand and 0 nM analyte concentration. Analysis was performed using a global 1:1 fit with Biacore Evaluation software (v3.0) with bulk refractive index set to zero RU.

[2] = target: T1, recombinant human TTR, denatured (misfolded) (human, UniProt P02766 21-147); experiment: SPR Biacore T200, antibody captured by anti-mouse antibody, Gu-hTTR as analyte, 1:1 fit
Description: as §1

[3] = target: T1, recombinant human TTR, denatured …; experiment: SPR Biacore T200, antibody captured by anti-mouse antibody, Gu-hTTR 0.4-100 nM as analyte, 1:1 fit
Description: (§2) Anti-Human antibody was immobilized on flow cells 1 and 2, Anti-Mouse antibody was immobilized on flow cells 3 and 4 on sensor chip CM3 (GE Healthcare Life Sciences) via amine coupling, chimeric and murine 18C5 antibodies (ligand) were captured to a level to ensure a maximum binding of analyte of 50 RU (approximately 250RU of ligand binding). Various concentrations of Gu-TTR (ranging from 0.4 nM to 100 nM) were passed over the captured ligand at 50 μL/min in running buffer (HBS+0.05% P-20, 1 mg/mL BSA, 50 mM Gu-HCl) for 300s association time and 900s dissociation time. Regeneration of the chip surface was accomplished by 2 short injections of 3M Magnesium Chloride or 2 short injections of 10 mM Glycine-HCl at pH 1.7. Data was blank subtracted to both a sensor not containing ligand and 0 nM analyte concentration. Analysis was performed using a global 1:1 fit with Biacore Evaluation software (v3.0) with bulk refractive index set to zero RU.

[4] = target: native tetrameric human TTR (human, UniProt P02766 21-147); experiment: SPR Biacore T200, antibody captured by anti-mouse antibody, human TTR tetramer 10-10,000 nM as analyte, 1:1 fit
Description: as §1

[5] = target: T1, recombinant human TTR, denatured …; experiment: SPR Biacore T200, antibody captured by anti-human antibody, Gu-hTTR 0.4-100 nM as analyte, 1:1 fit
Description: as §2

[6] = target: misfolded TTR in plasma of ATTR patients (human, UniProt P02766 21-147); experiment: MSD ECL competition: m14G8 spiked into plasma of 12 h-ATTR patients, free mis-TTR captured by biotinylated 9D5 (competitor), Dako polyclonal reporter

koff [1]: 0.00092 s⁻¹
kon [1]: 100000 M⁻¹ s⁻¹
Kd [2]: 5.9 nM
koff [2]: 0.00062 s⁻¹
kon [2]: 110000 M⁻¹ s⁻¹
Kd [3]: 2.2 nM
koff [3]: 0.00021 s⁻¹
kon [3]: 99000 M⁻¹ s⁻¹
koff [4]: 0.00022 s⁻¹
kon [4]: 2200 M⁻¹ s⁻¹
B1: mouse 18C5 antibody (antibody, V domains shown)
VH: EVKLLESGGGLVQPGGSLNLSCVASGFDFSRFWMSWARQAPGRGQEWIGEINPGSSTINYTPSLKDKFIISRDNAKNTLFLQMSKVRSEDSALYYCARLGYGNYGWALDYWGQGTSVTVSS
VL: DVLMTQTPLSLPVSLGDQASISCRSSQSIVDSNGNTYLEWYLQKPGQSPKLLIYKVSNRFSGVPDRFSGSGSGTDFTLKISRVEAEDLGIYYCFQGSHVPLTFGAGTKLELK
notes: Used unlabelled (Biacore, Western blot), biotinylated (capture) or SULFO-TAG labelled (reporter) in the MSD assays; also called murine 18C5; m18C5

Kd [5]: 1.8 nM
koff [5]: 0.00016 s⁻¹
kon [5]: 130000 M⁻¹ s⁻¹
B2: chimeric 18C5 antibody (antibody, human IgG1, kappa, V domains shown)
VH: B1 VH
VL: DVLMTQTPLSLPVSLGDQASISCRSSQSIVDSNGNTYLEWYLQKPGQSPKLLIYKVSNRFSGVPDRFSGSGSGTDFTLKISRVEAEDLGIYYCFQGSHVPLTFGAGTKLELKR
notes: Mouse 18C5 variable regions on human IgG1/kappa constant regions, expressed in CHO cells

EC50 [6]: 343 nM and ~50 µg/mL
B3: Mouse 14G8 (antibody, V domains shown)
VH: EVKLVESGGGLVQPGGSLKLSCAASGFTFSSYTMSWVRQTPEKRLELVAEINNSGDTTYYPDTVKGRFTISRDNAKNTLYLQMSSLKSEDTAMYYCARHYYYGGGYGGWFFDVWGTGTTVTVSS
VL: DIVMTQAAPSVPVTPGESVSISCRSNKSLLHSNGNTYLYWFLQRPGQSPQLLIYRVSNLASGVPDRFSGSGSGTAFTLRISRVEAEDVGVYYCMQHLEYPLTFGAGTKLELKR

— patent US20200249244A1 (PROTHENA BIOSCIENCES, published 2020)
